First the molecules themselves.
T1: S100A1 protein, dansyl-labelled (human, UniProt P23297 1-94, dansyl (DNS) label from dansyl chloride, site not stated)
T1 construct: human S100A1; cDNA cloned into pET28b; No tag is mentioned; purification was by Phenyl Sepharose; also called DNS-S100A1; Ca2+-S100A1; source: E. coli BL21, purified (Phenyl Sepharose CL4B, Superdex 75), labelled with dansyl chloride
T1 sequence (looked up): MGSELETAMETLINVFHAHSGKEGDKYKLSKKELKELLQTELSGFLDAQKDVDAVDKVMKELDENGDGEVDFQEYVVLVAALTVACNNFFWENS

B1: TRPC6(801–878) K856A (domain or fragment, rat, UniProt Q99N78 801-878, looked up)
chain: NKRNEEKKFGILGSHEDLSKFSLDRNQLAHNKQSSTRSSEDFHLNSFSNPPRQYQAIMKRLIKRYVLQAQIDKESDEV
notes: C-terminal part of rat TRPC6, amino acids 801-878, with K856A; Same construct as m1 (pET42b) with the point mutation; source: E. coli Rosetta, purified (Chelating Sepharose Fast Flow, Superdex 75)
B2: TRPC6(801–878) R852A/K859A/R860A (domain or fragment, rat, UniProt Q99N78 801-878, looked up)
chain: B1 chain with R52A, A56K, K59A, R60A
notes: C-terminal part of rat TRPC6, amino acids 801-878, with R852A, K859A and R860A; Same construct as m1 (pET42b) with the triple substitution; also called triple mutation Arg852/Lys859/Arg860; source: E. coli Rosetta, purified (Chelating Sepharose Fast Flow, Superdex 75)
B3: TRPC6(801–878) K859A/R860A/R864A (domain or fragment, rat, UniProt Q99N78 801-878, looked up)
chain: B1 chain with A56K, K59A, R60A, R64A
notes: C-terminal part of rat TRPC6, amino acids 801-878, with K859A, R860A and R864A; Same construct as m1 (pET42b) with the triple substitution; also called triple substitution Lys859/Arg860/Arg864; source: E. coli Rosetta, purified (Chelating Sepharose Fast Flow, Superdex 75)
B4: TRPC6(801–878) R864A (domain or fragment, rat, UniProt Q99N78 801-878, looked up)
chain: B1 chain with A56K, R64A
notes: C-terminal part of rat TRPC6, amino acids 801-878, with R864A; Same construct as m1 (pET42b) with the point mutation; source: E. coli Rosetta, purified (Chelating Sepharose Fast Flow, Superdex 75)
B5: TRPC6(801–878) R852A (domain or fragment, rat, UniProt Q99N78 801-878, looked up)
chain: B1 chain with R52A, A56K
notes: C-terminal part of rat TRPC6, amino acids 801-878, with R852A; Same construct as m1 (pET42b) with the point mutation; also called TRPC6 single mutant R852A; source: E. coli Rosetta, purified (Chelating Sepharose Fast Flow, Superdex 75)

The values below come from publication PMC3643951 (PLoS ONE, 2013).

Numbering of substitutions follows the chain as printed. Names may count otherwise.

In the assay the target is T1, S100A1 protein, dansyl-labelled. Put plainly: fluorescence polarisation; steady-state fluorescence anisotropy; TRPC6 construct titrated into DNS-S100A1 solution (232 µM as printed) in presence of calcium ions; excitation 340 nm, emission 520 nm. As to conditions: both partners purified. For orientation: In fluorescence polarisation assays a small probe gives low polarisation when free and higher when bound to something large.
As usually defined, the Kd is a measure of binding affinity in units of concentration. In the case of B1, the Kd is 760 nM.

B2: the Kd was 2620 nM.

As to B3, the Kd was 400 nM.

In the case of B4, the dissociation constant (Kd) worked out at 920 nM.

Take B5: the equilibrium dissociation constant (Kd) worked out at 480 nM.
